These results are taken from US12059437B2, “Methods and compositions for hematopoietic stem cell mobilization” (The Regents of the University of California, priority 2019, dated 2024).

Experiment [1] deals with HSCs (cKIT+lineage-SCA1+CD27+FLK2- cells). The experiment in a line: HSC mobilization to the blood in mice (perfused blood, flow cytometry). It counts as in vivo, mouse. How it is done: FIG. 1A: Experimental design for 2-hour HSC mobilization with sildenafil citrate plus AMD3100 (top), or 5-day GCSF treatment (bottom). GCSF was administered to mice once daily for 4 days (250 μg/kg). Sildenafil citrate was administered via oral gavage (OG; 3 mg/kg) once, 1 hr prior to a single subcutaneous (SQ) injection of AMD3100 (2.5 mg/kg). […]
FIG. 2E: Experimental design for HSC mobilization with multiple daily doses of sildenafil citrate. Sildenafil citrate was administered orally (OG) at 10 mg/kg once daily for 3 days. AMD3100 (2.5 mg/kg-5 mg/kg) was injected subcutaneously (SQ) 1 hour after the third sildenafil citrate dose, followed 1 hour later by blood perfusion and analysis.
Mobilization/tissue isolation. Mice were treated with subcutaneous (SQ) injections of rhGCSF (Amgen, Thousand Oaks, CA, 250 μg/kg) or a single dose of AMD3100 (Sigma, 2.5 mg/kg or 5 mg/kg where specified), or by oral gavage (OG) with sildenafil citrate (Viagra®; Sigma; 3, 10 or 30 mg/kg) (Motta et al., 2015) as indicated. Maximum blood was obtained by perfusing the mouse with PBS/20 mM EDTA through the left ventricle, clipping the right atrium and collecting the pooled perfused blood in the chest cavity. The total blood was processed for cell counts and flow cytometry analysis, as described previously (Smith-Berdan et al., 2011, 2015). Briefly, cells were pelleted by centrifugation, washed with 2% donor calf serum in PBS to remove EDTA, then incubated with fluorescently conjugated antibodies for flow cytometry analysis or resuspended in HBSS for transplantation into conditioned recipients.
Flow cytometry. Cell labeling was performed on ice in 1× PBS with 5 mM EDTA and 2% serum. Antibodies used are listed in the supplemental table. Samples were analyzed for donor chimerism (detectable by either GFP or antibodies targeted at the CD45.1/2 locus) on an LSRII or AriaIII (Becton Dickinson, San Jose, CA), as described previously (Beaudin et al., 2016; Boyer et al., 2011, 2019; Leung et al., 2019; Smith-Berdan et al., 2011, 2015; Ugarte et al., 2015).
For orientation: Flow cytometry measures light scatter and fluorescence of single cells or particles in a stream.

The next experiment relates to HSCs. Put plainly: Transplantation of mobilized blood into irradiated recipients (reconstitution, donor chimerism). It counts as in vivo, mouse. The following applies: compared to sildenafil citrate plus AMD3100; total donor chimerism 20 weeks post-transplantation. From the text: FIG. 1E: Donor chimerism over 5 months in lethally irradiated mice transplanted with blood from mice mobilized with AMD3100 alone or with both sildenafil citrate and AMD3100 as in the schedule shown in FIG. 1A. UBC-GFP mice were used as the mobilized donor mice, enabling identification of donor derived (GFP+) cells versus the unlabeled cells of the wild-type recipients. N=5-7 mice per cohort in 3 independent experiments. Paired t-test; *p<0.05 and **p<0.01.
FIGS. 11 and 1J: Long-term multilineage engraftment upon serial transplantation of bone marrow cells from the primary recipients in FIGS. 1E-1H into secondary, lethally irradiated wt hosts. Total donor chimerism in the peripheral blood over the course of the experiment is shown on the left. Quantification of donor-derived B, T and GM cells, platelets and erythrocytes 20 weeks post-transplantation is shown on the right. Data represent three independent experiments, N=9-12 mice per cohort. Unpaired t-test; *p<0.05, **p<0.01, ***p<0.001.
Transplantation of mobilized HSPCs. […]
Flow cytometry. […] Samples were analyzed for donor chimerism (detectable by either GFP or antibodies targeted at the CD45.1/2 locus) on an LSRII or AriaIII (Becton Dickinson, San Jose, CA), as described previously (Beaudin et al., 2016; Boyer et al., 2011, 2019; Leung et al., 2019; Smith-Berdan et al., 2011, 2015; Ugarte et al., 2015).

As to `c1cc(CN2CCCNCCNCCCNCC2)ccc1CN1CCCNCCNCCCNCC1` [AMD3100, reference compound], in experiment [1] (AMD3100 single SQ injection alone or plus a single oral sildenafil citrate dose (2-hour protocol), total perfused blood), the “increase of numbers of phenotypic HSCs compared to control mice” value stood at 2.9 fold. Further, in experiment [1] (perfusion and blood analysis 4 hours post AMD3100), the “numbers of HSCs in the blood 4 hrs post-treatment” value is “return to steady-state levels”. For the same molecule, the HSC mobilization entry in experiment [1] (single subcutaneous dose) is “modest, but reproducible, HSC mobilization”.

B1: G-CSF: granulocyte-colony stimulating factor, rhGCSF (Amgen), standard mobilizing agent (protein, UniProt P09919 31-207, looked up)
Granulocyte …: TPLGPASSLPQSFLLKCLEQVRKIQGDGAALQEKLVSECATYKLCHPEELVLLGHSLGIPWAPLSSCPSQALQLAGCLSQLHSGLFLYQGLLQALEGISPELGPTLDTLQLDVADFATTIWQQMEELGMAPALQPTQGAMPAFASAFQRRAGGVLVASHLQSFLEVSYRVLRHLAQP
As for B1, in experiment [1] (5-day GCSF protocol), the “numbers of phenotypic HSCs in the blood compared to sildenafil citrate plus AMD3100” value is recorded as “did not lead to significantly higher numbers of phenotypic HSCs”. The “numbers of HSCs in the bloodstream” value in experiment [1] (1 day after four consecutive days of G-CSF injections) is recorded as ~3,400 HSCs/mouse. The “mobilization of HSCs and/or HPCs” value in experiment [1] (FIGS. 2P and 2Q, GCSF 250 μg/kg for 4 days, AMD3100 5 mg/kg for 1 hour) is reported as “effectively mobilizes HSCs and/or HPCs”. The “reconstitution of recipients by blood from mobilized donors” value with HSCs was “reconstituted recipients more robustly”.
